Measured values as given in PMC6155056 (Science Advances, 2018).

Key:
Experiment in all cases: cryo-EM structure
[1] = target: T1, CVA10 procapsid (strain CVA10-FJ-01) (Coxsackievirus A10, strain CVA10-FJ-01 …, strain)
T1 chain 1: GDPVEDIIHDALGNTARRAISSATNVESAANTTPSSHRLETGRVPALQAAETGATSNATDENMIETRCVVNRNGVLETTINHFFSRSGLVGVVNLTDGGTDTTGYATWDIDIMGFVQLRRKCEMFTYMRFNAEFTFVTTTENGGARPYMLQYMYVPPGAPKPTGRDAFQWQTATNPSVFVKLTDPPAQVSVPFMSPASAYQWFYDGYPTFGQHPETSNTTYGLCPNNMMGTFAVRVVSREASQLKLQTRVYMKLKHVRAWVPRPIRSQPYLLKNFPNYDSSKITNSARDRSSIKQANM
T1 chain 2: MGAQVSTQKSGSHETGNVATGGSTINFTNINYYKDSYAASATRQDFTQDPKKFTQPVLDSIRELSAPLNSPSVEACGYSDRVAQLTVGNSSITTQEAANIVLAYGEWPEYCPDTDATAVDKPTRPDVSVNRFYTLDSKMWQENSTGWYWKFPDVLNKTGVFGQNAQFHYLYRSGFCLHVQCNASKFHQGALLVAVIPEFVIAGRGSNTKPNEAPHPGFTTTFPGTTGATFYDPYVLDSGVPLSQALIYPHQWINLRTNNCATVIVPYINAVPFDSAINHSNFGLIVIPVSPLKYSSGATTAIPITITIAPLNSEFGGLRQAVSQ
T1 chain 3: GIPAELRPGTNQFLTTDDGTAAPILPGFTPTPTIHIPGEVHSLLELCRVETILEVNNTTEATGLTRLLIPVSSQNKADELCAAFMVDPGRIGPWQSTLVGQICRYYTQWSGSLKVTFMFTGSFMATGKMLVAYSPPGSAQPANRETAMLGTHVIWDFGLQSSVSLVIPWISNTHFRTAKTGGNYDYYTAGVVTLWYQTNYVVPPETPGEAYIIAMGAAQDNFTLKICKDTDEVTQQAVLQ

[2] = target: T2, CVA10 capsid protein VP2 (strain CVA10-FJ-01) (Coxsackievirus A10, strain CVA10-FJ-01 …, strain)
T2 chain: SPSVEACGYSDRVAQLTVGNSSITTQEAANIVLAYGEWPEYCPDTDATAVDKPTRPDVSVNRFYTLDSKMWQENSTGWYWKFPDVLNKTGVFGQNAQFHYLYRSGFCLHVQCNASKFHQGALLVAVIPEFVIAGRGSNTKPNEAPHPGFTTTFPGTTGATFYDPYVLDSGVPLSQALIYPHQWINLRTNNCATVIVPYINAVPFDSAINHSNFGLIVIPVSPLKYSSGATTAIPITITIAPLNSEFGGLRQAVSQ

[3] = target: T3, CVA10 capsid protein VP3 (strain CVA10-FJ-01) (Coxsackievirus A10, strain CVA10-FJ-01 …, strain)
T3 chain: T1 chain 3

[4] = target: T4, CVA10 mature virion (strain CVA10-FJ-01) (Coxsackievirus A10, strain CVA10-FJ-01 …, strain)
T4 chain 1: T1 chain 1
T4 chain 2: T2 chain
T4 chain 3: T1 chain 3
T4 chain 4: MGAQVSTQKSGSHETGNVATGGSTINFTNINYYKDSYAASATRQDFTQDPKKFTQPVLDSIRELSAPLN

[5] = target: T5, CVA10 capsid protein VP1 (strain CVA10-FJ-01) (Coxsackievirus A10, strain CVA10-FJ-01 …, strain)
T5 chain: T1 chain 1

[6] = target: T6, CVA10 A-particle (strain CVA10-FJ-01) (Coxsackievirus A10, strain CVA10-FJ-01 …, strain)
T6 chain 1: T1 chain 1
T6 chain 2: T2 chain
T6 chain 3: T1 chain 3

B1: Fab 2G8 (Fab, V domains shown)
VH: EVQLQQSGPDLVKTGASVRVSCRASGYSFTSYYIHWVRLNHGKSLEWIGYINCYNGDITYNQKFKGKASFTLDTSSSTAYMEFNRLTSEDSAVYYCTRERYGTPHYHFDVWGAGP
VL: DVLMTQTPLSLPVSLGHQASISCRSSQSIVHSNGNTYLEWYLQKPGQSPKLLIYTVSNRFSGVPDRFSGSGSGTDFTLRITSVEAEDLGVYYCFQGSHIPYTFGGGTKLEIK
60 copies per particle: stoichiometry N [1] | stoichiometry N [4] | stoichiometry N [6]
binds: binding result [2] | binding result [3] | binding result [5]
